Tests used:
[1] = target: T1, CD33 expressed on MV4-11 human AML cells (human, UniProt P20138 18-364); test: flow cytometry on MV4-11 cells, anti-human IgG secondary
T1 construct: whole, on cells; also called cell-expressed CD33
Text: Human AML cell line MV4-11, expressing CD33 was used to assay the binding of TriNKETs to the tumor associated antigen.

[2] = target: T2, Tyrp-1 on B16F10 melanoma cells (UniProt P07147 25-537, limits assumed); test: flow cytometry on B16F10 tumor cells, 60 ug/mL with four-fold dilutions, goat anti-mouse PE secondary (FIG. 50A)
T2 construct: whole, on cells; also called Tyrp-1-positive B16F10 melanoma cells; B16F10 tumor cells
Method: 60 μg/mL of indicated antibodies with four-fold dilutions were added to 2×10⁵ B16F10 tumor cells (FIG. 50A) or EL4-mNKG2D cells (FIG. 50B). Binding was assessed using a goat anti-mouse PE secondary antibody followed by flow cytometric analysis.

T1 sequence (P20138 18-364): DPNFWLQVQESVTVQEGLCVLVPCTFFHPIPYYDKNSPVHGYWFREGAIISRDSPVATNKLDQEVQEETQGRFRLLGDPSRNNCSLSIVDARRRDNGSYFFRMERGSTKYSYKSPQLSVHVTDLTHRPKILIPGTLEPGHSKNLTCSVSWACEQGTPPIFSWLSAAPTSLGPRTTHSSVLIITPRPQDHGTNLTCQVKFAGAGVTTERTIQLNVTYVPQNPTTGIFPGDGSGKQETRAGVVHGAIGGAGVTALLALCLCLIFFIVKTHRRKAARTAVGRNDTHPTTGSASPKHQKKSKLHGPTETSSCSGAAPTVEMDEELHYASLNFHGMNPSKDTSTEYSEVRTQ

| binding result [1] | binding result [2] | Binder |
| --- | --- | --- |
| binds | – | CD33-TriNKET-C26 (ADI-28226 and a CD33-binding domain) (bispecific antibody, V domains shown, also called C26-TriNKET-CD33; CD33-targeting TriNKET) VH 1: QVQLQQWGAGLLKPSETLSLTCAVYGGSFSGYYWSWIRQPPGKGLEWIGEIDHSGSTNYNPSLKSRVTISVDTSKNQFSLKLSSVTAADTAVYYCARARGPWSFDPWGQGTLVTVSS VL 1: DIQMTQSPSTLSASVGDRVTITCRASQSISSWLAWYQQKPGKAPKLLIYKASSLESGVPSRFSGSGSGTEFTLTISSLQPDDFATYYCQQYGSFPITFGGGTKVEIK VH 2: QVQLVQSGAEVKKPGASVKVSCKASGYTFTDYVVHWVRQAPGQGLEWMGYINPYNDGTKYNEKFKGRVTMTRDTSISTAYMELSRLRSDDTAVYYCARDYRYEVYGMDYWGQGTLVTVSS VL 2: DIVLTQSPASLAVSPGQRATITCTASSSVNYIHWYQQKPGQPPKLLIYDTSKVASGVPARFSGSGSGTDFTLTINPVEANDTANYYCQQWRSYPLTFGQGTKLEIK |
| binds | – | CD33-TriNKET-F04 (ADI-29404 and a CD33-binding domain) (bispecific antibody, V domains shown, also called F04-TriNKET-CD33; CD33-targeting TriNKET) VH 1: QVQLQQWGAGLLKPSETLSLTCAVYGGSFSGYYWSWIRQPPGKGLEWIGEIDHSGSTNYNPSLKSRVTISVDTSKNQFSLKLSSVTAADTAVYYCARARGPWSFDPWGQGTLVTVSS VL 1: DIQMTQSPSTLSASVGDRVTITCRASQSISSWLAWYQQKPGKAPKLLIYKASSLESGVPSRFSGSGSGTEFTLTISSLQPDDFATYYCEQYDSYPTFGGGTKVEIK VH 2: QVQLVQSGAEVKKPGASVKVSCKASGYTFTDYVVHWVRQAPGQGLEWMGYINPYNDGTKYNEKFKGRVTMTRDTSISTAYMELSRLRSDDTAVYYCARDYRYEVYGMDYWGQGTLVTVSS VL 2: DIVLTQSPASLAVSPGQRATITCTASSSVNYIHWYQQKPGQPPKLLIYDTSKVASGVPARFSGSGSGTDFTLTINPVEANDTANYYCQQWRSYPLTFGQGTKLEIK |
| – | binds | mcFAE-C26.99 TriNKET (bispecific antibody, mouse IgG2c, also called murine cFAE-C26.99 TriNKET; TA99 TriNKET) light 1: DIQMTQSPSTLSASVGDRVTITCRASQSISSWLAWYQQKPGKAPKLLIYKASSLESGVPSRFSGSGSGTEFTLTISSLQPDDFATYYCQQYGSFPITFGGGTKVEIKRADAAPTVSIFPPSSEQLTSGGASVVCFLNNFYPKDINVKWKIDGSERQNGVLNSWTDQDSKDSTYSMSSTLTLTKDEYERHNSYTCEATHKTSTSPIVKSFNRNEC heavy 1: QVQLQQWGAGLLKPSETLSLTCAVYGGSFSGYYWSWIRQPPGKGLEWIGEIDHSGSTNYNPSLKSRVTISVDTSKNQFSLKLSSVTAADTAVYYCARARGPWSFDPWGQGTLVTVSSAKTTAPSVYPLAPVCGGTTGSSVTLGCLVKGYFPEPVTLTWNSGSLSSGVHTFPALLQSGLYTLSSSVTVTSNTWPSQTITCNVAHPASSTKVDKKIEPRVPITQNPCPPLKECPPCAAPDLLGGPSVFIFPPKIKDVLMISLSPMVTCVVVDVSEDDPDVQISWFVNNVEVHTAQTQTHREDYNSTLRVVSALPIQHQDWMSGKEFKCKVNNRALPSPIEKTISKPRGPVRAPQVYVLPPPAEEMTKKEFSLTCMIKGFLPAEIAVDWTSNGRTEQNYKNTATVLDSDGSYFMYSRLRVQKSTWERGSLFACSVVHEGLHNHLTTKTISRSLGK light 2: DIQMSQSPASLSASVGETVTITCRASGNIYNYLAWYQQKQGKSPHLLVYDAKTLADGVPSRFSGSGSGTQYSLKISSLQTEDSGNYYCQHFWSLPFTFGSGTKLEIKRADAAPTVSIFPPSSEQLTSGGASVVCFLNNFYPKDINVKWKIDGSERQNGVLNSWTDQDSKDSTYSMSSTLTLTKDEYERHNSYTCEATHKTSTSPIVKSFNRNEC heavy 2: EVQLQQSGAELVRPGALVKLSCKTSGFNIKDYFLHWVRQRPDQGLEWIGWINPDNGNTVYDPKFQGTASLTADTSSNTVYLQLSGLTSEDTAVYFCTRRDYTYEKAALDYWGQGASVIVSSAKTTAPSVYPLAPVCGGTTGSSVTLGCLVKGYFPEPVTLTWNSGSLSSGVHTFPALLQSGLYTLSSSVTVTSNTWPSQTITCNVAHPASSTKVDKKIEPRVPITQNPCPPLKECPPCAAPDLLGGPSVFIFPPKIKDVLMISLSPMVTCVVVDVSEDDPDVQISWFVNNVEVHTAQTQTHREDYNSTLRVVSALPIQHQDWMSGKEFKCKVNNRALPSPIEKTISKPRGPVRAPQVYVLPPPAEEMTKKEFSLTCMITGFLPAEIAVDWTSNGRTEQNYKNTATVLDSDGSYLMYSKLTVQKSTWERGSLFACSVVHEGLHNHLTTKTISRSLGK |

Source: patent publication US20200095327A1 (DRAGONFLY THERAPEUTICS, published 2020)
